In the RNAGym collection of RNA variant scans (doi:10.1073/pnas.2313332121):

B1: TPR t1 (parent)
chain: GACCAAUCUGCCCUCAGAGCUCGAGAACAUCUUCGGAUGCAGAGGAGGCAGGCUUCGGUGGCGCGAUAGCGCCAACGUCCUCAACCUCCAAUGCAUCCCACCACAUGAUGAUGCCUGAAGAGCCUUGGUUUUUUG

Variants of: B1
Assay: polymerase ribozyme fitness, log enrichment relative to wild type (log ratio); higher = more active; in vitro selection for triplet polymerase activity
How it was run: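 For each subunit of a heterodimeric triplet polymerase ribozyme, a mutant library was built by PCR and transcribed, then taken through a single in vitro selection round in triplicate. Selection involved annealing to a biotinylated primer, the partner subunit and triplets, incubation frozen at −7 °C, gel excision of extended constructs, capture on streptavidin beads and RT-PCR. Genotypes were retained after Illumina sequencing of inputs and outputs only with ≥10 input reads and ≥1 read in each output. Fitness is defined as the logarithm of a genotype's enrichment relative to wild-type enrichment, using inverse-variance-weighted averages across replicates, with the logarithm taken to base 2.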

Row | Variant | polymerase ribozyme fitness (log ratio)
1 | C8A G47C C56G C82U U87A C101U G107U C115U A118C | -6.49
2 | C8A G47U U78A A83C C98G U112A | -7.02
3 | C8A G48C | -0.457
4 | C8A G48C C49U C62A C94A | -3.22
5 | C8A G48U C53A C62U C82U U106A A108G | -1.01
6 | C8A G48U C53A C82U U106A A108G | -1.56
7 | C8A G51C C73U C94U U130G | -3.59
8 | C8A G52A C98A | -4.9
9 | C8A G57U A66G C76U A90U | -4.82
10 | C8A G58C U112C A121G | 1.27
11 | C8A G61U G117U A119U C123U | -0.671
12 | C8A G63A | -0.863
13 | C8A G63A A83C C86U | -0.491
14 | C8A G63U G77C G117C | -4.17
15 | C8A G69C | -1.13
16 | C8A G69C G110C | -4.93
17 | C8A G71A | 0.22
18 | C8A G93A | -0.248
19 | C8A G110A | -0.267
20 | C8A G110C | -3.59
21 | C8A G113C | -1.59

Row | Variant | polymerase ribozyme fitness (log ratio)
22 | C8A G117C | -2.07
23 | C8A G120A | 1.88
24 | C8A G122A | 0.24
25 | C8A U9G A16G A24G G39C G60A C64A U92C G110U G113U A121U C123G U126G | -6.69
26 | C8A U9G C85G C89A U126G G127C | -2.22
27 | C8A U9G G39C G69A U78C U92G U106A | -7.09
28 | C8A U9G U87A | 0.00649
29 | C8A U14A C101G | -1.85
30 | C8A U21A C34G C70A U109G | -5.88
31 | C8A U21G | -1.24
32 | C8A U33A G42U U112A C123A | -6.39
33 | C8A U38A G42U G45A | -2.61
34 | C8A U54G A105G U112A C123G C124A U132C | -1.56
35 | C8A U112A C123A | 1.22
36 | C8A U112C A121G | 2.38
37 | C8A U130G U132A | -2.74
38 | C8G A16C C62U C94A U112G U130C | -1.66
39 | C8G A18C G39C U133G | -2.2
40 | C8G A18U C73G U126G | -5.64
41 | C8G A18U G45A C79U A100U A103C C114U | -4.29
42 | C8G A18U U21A C73U G93A | -3.79

Row | Variant | polymerase ribozyme fitness (log ratio)
43 | C8G A24G C124U U126G | -2.55
44 | C8G A26G C86G U109C | -5.29
45 | C8G A29U G120U | 0.42
46 | C8G A29U U55G C56A C94U C124A | -1.05
47 | C8G A37G G71A | 0.737
48 | C8G A37U G44A G60C C115A | -0.0408
49 | C8G A41G C53G G93U | -0.406
50 | C8G A43C A50U C115U G127U | -4.94
51 | C8G A43U U54C C114A A118G | -4.79
52 | C8G A46G | 0.594
53 | C8G A46G G107A | -4.69
54 | C8G A46U A91U G117C | -2.28
55 | C8G A46U G63C | -0.288
56 | C8G A50C C73U G93A | -0.0523
57 | C8G A50G G63A U112A G122A | -1.09
58 | C8G A50U | -0.104
59 | C8G A50U U54C U106A G117A | -0.842
60 | C8G A74C | 0.88
61 | C8G A90G G113U G117A G127A | -6.12
62 | C8G A100U U106A U116A | -0.749
63 | C8G C11G C53U C62U U81G C102A | -4.4

Row | Variant | polymerase ribozyme fitness (log ratio)
64 | C8G C11G C56A C62G C85U | -4.61
65 | C8G C11G U96A | -0.26
66 | C8G C11U C124A | 2.24
67 | C8G C11U G120A | 2.17
68 | C8G C11U U21C C34U | -3.99
69 | C8G C12G A46U | -0.837
70 | C8G C12G G44C U96A | -0.546
71 | C8G C12G U55G G61U | 0.571
72 | C8G C12G U55G G61U G71A | -6.64
73 | C8G C12U G63A G122A C123U | 0.85
74 | C8G C13A A18G C53A C88A U125G | -3.4
75 | C8G C13A C85U G135U | -1.16
76 | C8G C13G A16U C49A C70U U129C | -1.75
77 | C8G C13G G36A C72U U78A A111C | 0.397
78 | C8G C13G U54C | 0.758
79 | C8G C13U A16U G71A | -0.033
80 | C8G C13U G45C A84C | 0.0875
81 | C8G C15A C20U C56A G57U | -1.84
82 | C8G C15A G69A C89G | -5.71
83 | C8G C15U C70U | -0.473
